The values that follow come from US20100159482A1 (LIFE TECHNOLOGIES, published 2010).

The labels stand for the following.
B1: MeOSuc-AlaAlaAlaProVal-CH2Cl (peptide)
peptide: AAAPV
HELM: PEPTIDE1{[COC(=O)CCC(=O)[*:2]].A.A.A.P.V.[ClC[*:1]]}$$$$V2.0
SMILES: COC(=O)CCC(=O)N[C@@H](C)C(=O)N[C@@H](C)C(=O)N[C@@H](C)C(=O)N1CCC[C@H]1C(=O)N[C@H](C(=O)CCl)C(C)C
B2: MeOSuc-AlaProAlaLeu-CH2Cl (peptide)
peptide: APAL
HELM: PEPTIDE1{[COC(=O)CCC(=O)[*:2]].A.P.A.L.[ClC[*:1]]}$$$$V2.0
SMILES: COC(=O)CCC(=O)N[C@@H](C)C(=O)N1CCC[C@H]1C(=O)N[C@@H](C)C(=O)N[C@@H](CC(C)C)C(=O)CCl
B3: MeOSuc-AlaAlaAlaProLeu-CH2Cl (peptide)
peptide: AAAPL
HELM: PEPTIDE1{[COC(=O)CCC(=O)[*:2]].A.A.A.P.L.[ClC[*:1]]}$$$$V2.0
SMILES: COC(=O)CCC(=O)N[C@@H](C)C(=O)N[C@@H](C)C(=O)N[C@@H](C)C(=O)N1CCC[C@H]1C(=O)N[C@@H](CC(C)C)C(=O)CCl
notes: also called MeOSuc-AAAPL-CH2Cl; A3PL
B4: MeOSuc-AlaAlaAlaProPhe-CH2Cl (peptide)
peptide: AAAPF
HELM: PEPTIDE1{[COC(=O)CCC(=O)[*:2]].A.A.A.P.F.[ClC[*:1]]}$$$$V2.0
SMILES: COC(=O)CCC(=O)N[C@@H](C)C(=O)N[C@@H](C)C(=O)N[C@@H](C)C(=O)N1CCC[C@H]1C(=O)N[C@@H](Cc1ccccc1)C(=O)CCl
B5: MeOSuc-AlaAlaProPhe-CH2Cl (peptide)
peptide: AAPF
HELM: PEPTIDE1{[COC(=O)CCC(=O)[*:2]].A.A.P.F.[ClC[*:1]]}$$$$V2.0
SMILES: COC(=O)CCC(=O)N[C@@H](C)C(=O)N[C@@H](C)C(=O)N1CCC[C@H]1C(=O)N[C@@H](Cc1ccccc1)C(=O)CCl
notes: also called MeOSuc-AAPF-CH2Cl; MSFCK
B6: MeOSuc-AlaAlaProLeu-CH2Cl (peptide)
peptide: AAPL
HELM: PEPTIDE1{[COC(=O)CCC(=O)[*:2]].A.A.P.L.[ClC[*:1]]}$$$$V2.0
SMILES: COC(=O)CCC(=O)N[C@@H](C)C(=O)N[C@@H](C)C(=O)N1CCC[C@H]1C(=O)N[C@@H](CC(C)C)C(=O)CCl
notes: also called MeOSuc-AAPL-CH2Cl; methoxysuccinyl-AAPL-chloromethyl ketone

The star is where a group is joined. MeOSuc = COC(=O)CCC(=O)*; CH2Cl = ClC*

The target in the first test is T1, proteinase K (UniProt P06873 106-384). As to the kind of experiment: cell-based or functional assay.
T1 sequence (P06873 106-384 limits assumed): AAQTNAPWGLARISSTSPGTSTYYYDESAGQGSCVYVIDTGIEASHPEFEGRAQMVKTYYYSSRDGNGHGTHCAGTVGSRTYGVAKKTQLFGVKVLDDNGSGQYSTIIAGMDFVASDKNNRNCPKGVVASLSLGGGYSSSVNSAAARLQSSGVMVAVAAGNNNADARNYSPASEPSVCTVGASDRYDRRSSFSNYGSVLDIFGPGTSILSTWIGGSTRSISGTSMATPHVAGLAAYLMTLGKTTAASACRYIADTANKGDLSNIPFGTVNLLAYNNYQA
For B1, the effective inhibitory concentration, beta-actin RT-qPCR from HeLa cell lysates was 0.5 mM.

With B2, the “lowest inhibitory concentration in the stopped mixture, indirect linked RT-qPCR assay” value (“lowest inhibitory concentration” for short) is roughly 0.5 mM.

For the molecule B3, the “effective inhibitory concentration, beta-actin RT-qPCR from HeLa cell lysates” value (from here on “effective inhibitory concentration”) was roughly 0.1 mM and the “lowest inhibitory concentration” value is roughly 0.05 mM.

Molecule B4 registered an effective inhibitory concentration, beta-actin RT-qPCR from HeLa cell lysates of 0.1 mM.

For the molecule MeOSuc-AAPV-CH2Cl (also called MeOSuc-AAPV-CH2Cl; MSVCK) [methoxysuccinyl-AlaAlaProVal-chloromethyl ketone], the “effective inhibitory concentration” value came to 0.5 mM and the “lowest inhibitory concentration” value is roughly 0.25 mM.

Turning to B5, the “lowest inhibitory concentration” value is roughly 0.05 mM.

B6: the “effective inhibitory concentration” value is roughly 0.1 mM.

The next test concerns the target T1, proteinase K. The test is described as follows: computed, not measured: CDOCKER docking on PDB 3PRK, MM-PBSA rescoring, average of three poses. How it is done:
Based on the studies cited in the previous examples, a study was carried out to examine the change in total binding free energy of peptide inhibitor to proteinase K to form the peptide-inhibitor complex. The molecular docking of inhibitors MeOSuc-AAPV-CH₂Cl (SEQ ID NO:2), MeOSuc-AAPL-CH₂Cl (SEQ ID NO:10), MeOSuc-AAAPV-CH₂Cl (SEQ ID NO:8), MeOSuc-AAAPL-CH₂Cl (SEQ ID NO:7), MeOSuc-AAAPF-CH₂Cl (SEQ ID NO:9), MeOSuc-AAPA-CH₂Cl (SEQ ID NO:1), and MeOSuc-AAPF-CH₂Cl (SEQ ID NO:5) into the binding site of Proteinase K was performed using CDOCKER of Discovery Studio V2.01 (1. (Accelrys Software Inc., Discovery Studio Modeling Environment, Release 2.01, San Diego: Accelrys Software Inc., 2008., trial version) which uses a CHARMm based Molecular Dynamics docking algorithm. The crystal structure of the protein complex covalently formed between proteinase K and MeOSuc-AAPA-CH₂Cl (SEQ ID NO:1) was used as a starting structure for molecular simulation (PDB CODE: 3PRK; Wolf W M et al. J. Biol. Chem. 1991, 266, 17695). Water molecules were removed from the protein complex, protonated at pH 8.0 and the structure was energy minimized using CHARMm force field with a convergence threshold of 0.05 kcal/mol A. Then, the inhibitor part was removed from the protein complex and was used to build the structures of MeOSuc-AAPV-CH₂Cl (SEQ ID NO:2) (see FIG. 8A), MeOSuc-AAPL-CH₂Cl (SEQ ID NO:10) (see FIG. 9A), MeOSuc-AAAPV-CH₂Cl (SEQ ID NO:8) (see FIG. 8B), MeOSuc-AAAPL-CH₂Cl (SEQ ID NO:7) (see FIG. 9B), MeOSuc-AAAPF-CH₂Cl (SEQ ID NO:9) (see FIG. 11B), MeOSuc-AAPA-CH₂Cl (SEQ ID NO:1) (see FIG. 10), and MeOSuc-AAPF-CH₂Cl (SEQ ID NO:5) (see FIG. 11A). A site sphere with a radius of 13A was created at center of the active site of inhibitor-free proteinase K.
The CDOCKER algorithm can generate several different orientations for each inhibitor in the active site of proteinase K within the site sphere and perform MD-based simulated annealing followed by final minimization. […] The MD simulation for each orientation consisted of 1000 steps at 2 fs per step and at 1000 K. No inherent restrictions were placed on the conformers of inhibitors.
On to “methoxysuccinyl-AlaAlaProAla-chloromethyl ketone (peptide)”, for which the ΔΔGBind (total binding free energy, calculated) was -61.1 kJ/mol.

In the case of B1, the ΔΔGBind (total binding free energy, calculated) was 5.52 kJ/mol.

In the case of B3, the “ΔΔGBind (total binding free energy, calculated)” value was -129 kJ/mol.

As for B4, the ΔΔGBind (total binding free energy, calculated) was 41.6 kJ/mol.

Regarding MeOSuc-AAPV-CH2Cl (also called MeOSuc-AAPV-CH2Cl; MSVCK) [methoxysuccinyl-AlaAlaProVal-chloromethyl ketone], the “ΔΔGBind (total binding free energy, calculated)” value was -27.7 kJ/mol.

Regarding B5, the “ΔΔGBind (total binding free energy, calculated)” value was -10.7 kJ/mol.

For B6, the “ΔΔGBind (total binding free energy, calculated)” value was -53 kJ/mol.
